# Data published in publication PMC10083601 (Proceedings of the National Academy of Sciences of the …, 2023).
# T1: N-terminally truncated tyrosine phosphorylated STAT1 (residues 136 to 750, N-terminally tagged with GB1) (UniProt P42224 136-750)
# T1 sequence: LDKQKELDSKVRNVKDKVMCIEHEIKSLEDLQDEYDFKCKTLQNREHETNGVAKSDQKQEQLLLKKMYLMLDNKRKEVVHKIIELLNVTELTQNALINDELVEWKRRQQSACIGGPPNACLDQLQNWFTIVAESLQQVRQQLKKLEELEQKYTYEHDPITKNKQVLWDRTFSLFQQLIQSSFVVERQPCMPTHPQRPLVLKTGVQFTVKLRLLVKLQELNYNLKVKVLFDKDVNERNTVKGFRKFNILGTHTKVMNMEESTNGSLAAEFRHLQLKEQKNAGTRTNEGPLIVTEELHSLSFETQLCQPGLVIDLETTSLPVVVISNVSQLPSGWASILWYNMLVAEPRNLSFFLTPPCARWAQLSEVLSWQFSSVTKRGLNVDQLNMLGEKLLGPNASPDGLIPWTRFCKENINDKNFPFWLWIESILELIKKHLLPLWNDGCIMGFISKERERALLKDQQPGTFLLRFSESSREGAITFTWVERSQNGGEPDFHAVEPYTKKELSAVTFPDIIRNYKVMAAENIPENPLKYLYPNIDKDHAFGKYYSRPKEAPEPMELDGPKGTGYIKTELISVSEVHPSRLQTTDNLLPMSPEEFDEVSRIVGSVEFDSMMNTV
# Target: T1, N-terminally truncated tyrosine …
# Test: ITC
binder,measurement,value
Rabies virus (strain Nishigahara) P3 protein (natural protein) MSRLHLDDGKLPDLGRMSKAGEGRHQEDFQMDEGEDPSLLFQSYLDNVGVQIVRQMRSGERFLKIWSQTVEEIISYVTVNFPNPSGRSSEDKSTQTTSQEPKKETTSTPSQRKSQSLKSRTMAQTASGPPSLEWSATNEEDDLSVEAEIAHQIAESFSKKYKFPSRSSGIFLYNFEQLKMNLDDIVKEAKNVPGVTRLAHDGSKLPLRCVLGWVALANSKKFQLLVEANKLNKIMQDDLNRYASC,Kd,800 nM
